From the supplement of paper PMC9732359
± gives the uncertainty stated by the source.

Experiment: protein stability index of a GFP-peptide fusion (yeast GPS) (PSI 1-4); higher = more stable; sorted into four equal gates, so the index is relative within each strain
Procedure, shortened: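 The protein stability index of a peptide was calculated by multiplying its read frequency in each gate by that gate's number and adding the products. The peptides were tiled 17-residue stretches of yeast proteins, fused downstream of GFP on a Cherry-expressing plasmid and carried in yeast as a pooled library. Mid-log cultures in leucine-free medium were sorted into four equal gates by GFP/Cherry ratio, and each gate's plasmids were PCR-amplified and Illumina-sequenced.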

| Sequence | protein stability index (doa10∆) | protein stability index (pdr5∆) | protein stability index (san1∆) | protein stability index (ubr1∆) |
| --- | --- | --- | --- | --- |
| ETHETNISNAKLANFFS [YAR002W/NUP60] | 3.03 ± 0.12 | 3.15 ± 0.11 | 3.15 ± 0.073 | 3.2 ± 0.13 |
| EATSNTNSEDKLSKVQL [MED4] | 2.82 ± 0.13 | 2.92 ± 0.071 | 2.77 ± 0.087 | 2.93 ± 0.075 |
| LSINKNFINQEDEGEER [RPC17] |  | 3.29 ± 0.28 |  |  |
| PSFGKRHNKSHTLCNRC [RPL37A] | 2.54 ± 0.1 | 2.84 ± 0.08 | 2.97 ± 0.12 | 2.68 ± 0.21 |
| TYDKETITDLIEQGIPK [SIR4] | 3.3 ± 0.049 | 3.39 ± 0.051 | 3.35 ± 0.04 | 3.41 ± 0.043 |
| TLISENWWHSEFEIPVS [BRR2] | 1.84 ± 0.11 | 1.59 ± 0.058 | 1.8 ± 0.1 | 1.25 ± 0.059 |
| KAKSNQTQREKAPLQPN [IRR1] | 3.07 ± 0.058 | 3.24 ± 0.052 | 3.09 ± 0.035 | 3.07 ± 0.05 |
| ISWCSLSETNGLHKFVK [PRE10] | 2.38 ± 0.089 | 2.73 ± 0.12 | 2.82 ± 0.11 | 2.44 ± 0.11 |
| RSTDRDRVKVIECFKPG [CSL4] | 3.14 ± 0.14 | 3.1 ± 0.2 | 3.26 ± 0.1 | 2.99 ± 0.088 |
| LPTRGTLESLENLVVAD [COR1] | 2.83 ± 0.059 | 3.04 ± 0.053 | 2.84 ± 0.057 | 2.89 ± 0.042 |
| CLEACSFILSSLEDPQV [YDL116W/NUP84] | 2.68 ± 0.048 | 2.71 ± 0.054 | 2.87 ± 0.038 | 2.75 ± 0.042 |
| TLQLGQEFQLKQINHQG [RPB4] | 3.22 ± 0.26 | 3.28 ± 0.15 |  | 3.38 ± 0.24 |
| GSCTRQLAGKSGEDTNV [YOR098C/NUP1] | 3.38 ± 0.2 | 3.51 ± 0.15 | 3.34 ± 0.12 | 3.17 ± 0.082 |
| KMIEKIEKMSTIVQLCK [YIL149C/MLP2] | 2.65 ± 0.092 | 2.37 ± 0.067 | 1.98 ± 0.17 | 2.36 ± 0.098 |
| SFVHGVVGQLFQIDNDN [SMC2] | 3.11 ± 0.16 | 3.13 ± 0.12 | 3.13 ± 0.068 | 3.25 ± 0.13 |
| STEYMMQFAKSKTVKVL [RPN6] | 1.1 ± 0.064 | 1.2 ± 0.073 | 1.2 ± 0.2 | 1.07 ± 0.094 |
| EVYGINEESTNERLEIN [SIR4] | 3.29 ± 0.16 | 3.25 ± 0.13 | 3.22 ± 0.16 | 3.15 ± 0.14 |
| TVPNINFSGLNGGITNT [YOR098C/NUP1] | 3.45 ± 0.15 | 3.35 ± 0.22 | 3.74 ± 0.11 | 3.67 ± 0.12 |
| IADSTHVKRITKIAQSQ [ECM29] | 1.86 ± 0.097 | 1.71 ± 0.059 | 1.3 ± 0.12 | 1.38 ± 0.044 |
| DNLLLNLEQINEDLEDG [REC8] | 2.81 ± 0.056 | 2.67 ± 0.066 | 2.71 ± 0.08 | 3.07 ± 0.061 |
| VQGLLQNAAANAEAKGL [RPL17A] | 2.3 ± 0.094 | 2.76 ± 0.1 | 2.06 ± 0.1 | 2.4 ± 0.12 |
| GDKVVVTIWYRAPELLL [SSN3] | 1.74 ± 0.058 | 1.78 ± 0.072 | 1.74 ± 0.068 | 2.05 ± 0.044 |
| PSPISHVAEIRSALEKG [RPB2] | 1.68 ± 0.076 | 1.93 ± 0.066 | 1.68 ± 0.09 | 1.76 ± 0.053 |
| SLNLQYVNYEISTAKAW [YML103C/NUP188] | 2.6 ± 0.055 | 2.93 ± 0.082 | 2.55 ± 0.074 | 2.69 ± 0.058 |
| KIEGVATPQEAQFYLGK [RPL33B] | 2.87 ± 0.083 | 3.03 ± 0.098 | 2.91 ± 0.091 | 3 ± 0.072 |
| HDELDMNECIADQDMED [ESC2] | 3.22 ± 0.092 | 2.64 ± 0.11 | 2.87 ± 0.07 | 2.97 ± 0.074 |
| ETAKMIENMTKEKVSNG [FAS2] | 3.41 ± 0.3 | 3.28 ± 0.13 | 3.57 ± 0.091 | 3.02 ± 0.11 |

| Sequence | protein stability index (doa10∆) | protein stability index (pdr5∆) | protein stability index (san1∆) | protein stability index (ubr1∆) |
| --- | --- | --- | --- | --- |
| RFPTKFVTQFRHLRRTG [RET1] | 1.41 ± 0.078 | 1.73 ± 0.14 |  | 2.17 ± 0.068 |
| VAAKWNTSLISLFTYFR [PRP8] | 1.7 ± 0.064 | 1.97 ± 0.095 | 1.74 ± 0.18 | 2 ± 0.039 |
| QHQEEPLLSLDVTPISM [RPN4] | 2.77 ± 0.2 | 2.97 ± 0.16 | 3.07 ± 0.086 | 2.65 ± 0.23 |
| EKTMMTFGKPEEEDSIL [YCS4] | 3.27 ± 0.15 | 3.37 ± 0.14 | 3.35 ± 0.063 | 3.27 ± 0.088 |
| AQPSVQSSFAGTWSAKE [FAS2] | 2.74 ± 0.21 | 3.13 ± 0.14 | 3.35 ± 0.076 | 3.09 ± 0.087 |
| GTENTERPPLLPILPIQ [YOR098C/NUP1] | 2.42 ± 0.17 | 3.08 ± 0.17 |  |  |
| PYLLPYILEAEAAAKEK [QCR7] | 1.39 ± 0.07 | 1.26 ± 0.062 | 1.5 ± 0.11 | 1.19 ± 0.053 |
| NYKGLPKKYKENNTDSA [SMC1] | 3.32 ± 0.07 | 3.31 ± 0.085 | 3.28 ± 0.045 | 3.36 ± 0.061 |
| ALIDAGISMFDYISGIS [SKI6] | 1.48 ± 0.064 | 1.5 ± 0.046 | 2.3 ± 0.099 | 1.68 ± 0.037 |
| GIACAGKGLQSAIDVLD [RPN2] | 2.15 ± 0.068 | 2.52 ± 0.077 | 2.48 ± 0.1 | 2.75 ± 0.071 |
| SRNKALELNLSVLHSWV [YJL039C/NUP192] |  | 2.5 ± 0.14 | 2.84 ± 0.08 | 2.51 ± 0.24 |
| TSTDGKKRSKARKETYS [HTB1] | 3.07 ± 0.24 | 3.11 ± 0.14 |  |  |
| TTPKKIKHKHKKVKLAV [RPS31] | 2.19 ± 0.052 | 1.99 ± 0.1 | 1.34 ± 0.2 | 1.91 ± 0.059 |
| NVLDYFAESPFFDKTSN [MED6] | 3.46 ± 0.068 | 2.99 ± 0.085 | 2.87 ± 0.062 | 3.04 ± 0.051 |
| MNNGSGRYLLTPPDDLH [SRB8] | 2.41 ± 0.06 | 2 ± 0.044 | 2.29 ± 0.13 | 2.63 ± 0.054 |
| IQKESTLHLVLRLRGGI [RPL40A] | 2.48 ± 0.11 | 2.6 ± 0.071 | 2.35 ± 0.1 | 2.54 ± 0.058 |
| RQQKLLLETKLRQQYEI [SWI1] | 3.06 ± 0.11 | 2.93 ± 0.1 | 3.17 ± 0.068 | 2.91 ± 0.11 |
| ESQYPIVTEQPSAEIRE [SWP82] | 2.56 ± 0.04 | 2.73 ± 0.042 | 2.57 ± 0.047 | 2.56 ± 0.039 |
| CGHRILLKARTKRLVQF [RPC10] | 1.43 ± 0.11 | 1.99 ± 0.13 | 1.68 ± 0.18 | 1.22 ± 0.052 |
| KTDEVIILGTNLYDGAE [BRR2] | 2.98 ± 0.068 | 3.12 ± 0.055 | 3.06 ± 0.042 | 2.9 ± 0.043 |
| TGGGLFGSKPTGATSLF [YGL172W/NUP49] | 3.45 ± 0.11 | 3.57 ± 0.1 | 3.56 ± 0.045 | 3.62 ± 0.074 |
| LKWSACTSLMDIIVAIK [IRR1] | 2.65 ± 0.14 | 2.72 ± 0.057 | 2.44 ± 0.16 | 2.83 ± 0.071 |
| PYPKSRYNRAVPDSKIR [RPL10] | 3.03 ± 0.049 | 3.19 ± 0.052 | 3.05 ± 0.043 | 3.04 ± 0.048 |
| SQLLLERLMISSDAFEV [RET1] | 1.8 ± 0.08 | 2.4 ± 0.044 | 1.98 ± 0.058 | 1.86 ± 0.049 |
| VSFYFEDGTIESYNQND [SIN4] | 2.2 ± 0.083 | 2.34 ± 0.1 | 2.41 ± 0.076 | 2.92 ± 0.084 |
| AKKTSTSTDGKKRSKAR [HTB1] | 3.2 ± 0.25 | 3.12 ± 0.17 |  |  |
| TRPISSQVLDLAKKIAP [SMC2] | 2.72 ± 0.15 | 2.44 ± 0.097 | 2.59 ± 0.28 | 1.95 ± 0.14 |
